Laboratory results from the supplement of paper PMC10567573.

B1: SNAP91 (parent)
chain: FAAPSPATTASPAKVDSSGVIDLF
B2: INTS3 (parent)
chain: FSDDEEDLNSKGKKREFRFHPIKE

Variants of: B1
Experiment: protein stability index of a GFP-peptide fusion (GPS, HEK-293T) (PSI 1-6); higher = more stable
Details: c terminus: a fixed tail appended
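Also: lentivirally expressed fusions sorted by FACS into six bins by GFP to DsRed ratio, PSI derived from sequencing read proportions per bin multiplied by bin number.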

Variant | protein stability index
FAVPSPATTASPAKVDSSGVIDLF [A3V] | 2.46
FASPSPATTASPAKVDSSGVIDLF [A3S] | 2.61
FAKPSPATTASPAKVDSSGVIDLF [A3K] | 2.38
FAIPSPATTASPAKVDSSGVIDLF [A3I] | 2.28
FAHPSPATTASPAKVDSSGVIDLF [A3H] | 2.23
FARPSPATTASPAKVDSSGVIDLF [A3R] | 2.12
FAFPSPATTASPAKVDSSGVIDLF [A3F] | 1.62
FACPSPATTASPAKVDSSGVIDLF [A3C] | 1.99
FAYPSPATTASPAKVDSSGVIDLF [A3Y] | 1.79
FAGPSPATTASPAKVDSSGVIDLF [A3G] | 2.32
FAEPSPATTASPAKVDSSGVIDLF [A3E] | 2.17
FAMPSPATTASPAKVDSSGVIDLF [A3M] | 1.92
FAPPSPATTASPAKVDSSGVIDLF [A3P] | 2.44
FATPSPATTASPAKVDSSGVIDLF [A3T] | 2.6
FAWPSPATTASPAKVDSSGVIDLF [A3W] | 2.09
FANPSPATTASPAKVDSSGVIDLF [A3N] | 1.86
FALPSPATTASPAKVDSSGVIDLF [A3L] | 2.33
FAQPSPATTASPAKVDSSGVIDLF [A3Q] | 2.31
FADPSPATTASPAKVDSSGVIDLF [A3D] | 2.29
FAANSPATTASPAKVDSSGVIDLF [P4N] | 2.43
FAACSPATTASPAKVDSSGVIDLF [P4C] | 1.56
FAAGSPATTASPAKVDSSGVIDLF [P4G] | 1.95

Variant | protein stability index
FAAYSPATTASPAKVDSSGVIDLF [P4Y] | 1.38
FAADSPATTASPAKVDSSGVIDLF [P4D] | 2.33
FAASSPATTASPAKVDSSGVIDLF [P4S] | 1.71
FAAHSPATTASPAKVDSSGVIDLF [P4H] | 2.26
FAALSPATTASPAKVDSSGVIDLF [P4L] | 1.93
FAATSPATTASPAKVDSSGVIDLF [P4T] | 1.67
FAAKSPATTASPAKVDSSGVIDLF [P4K] | 2.08
FAAWSPATTASPAKVDSSGVIDLF [P4W] | 1.76
FAAESPATTASPAKVDSSGVIDLF [P4E] | 2.23
FAAVSPATTASPAKVDSSGVIDLF [P4V] | 2.13
FAAASPATTASPAKVDSSGVIDLF [P4A] | 1.79
FAAMSPATTASPAKVDSSGVIDLF [P4M] | 2.18
FAAISPATTASPAKVDSSGVIDLF [P4I] | 1.77
FAAQSPATTASPAKVDSSGVIDLF [P4Q] | 2.2
FAARSPATTASPAKVDSSGVIDLF [P4R] | 2.12
FAAFSPATTASPAKVDSSGVIDLF [P4F] | 1.61
DAAPSPATTASPAKVDSSGVIDLF [F1D] | 4.3
QAAPSPATTASPAKVDSSGVIDLF [F1Q] | 4.28
SAAPSPATTASPAKVDSSGVIDLF [F1S] | 3.56
YAAPSPATTASPAKVDSSGVIDLF [F1Y] | 2.3
CAAPSPATTASPAKVDSSGVIDLF [F1C] | 3.82
LAAPSPATTASPAKVDSSGVIDLF [F1L] | 3.4

Variant | protein stability index
HAAPSPATTASPAKVDSSGVIDLF [F1H] | 3.86
VAAPSPATTASPAKVDSSGVIDLF [F1V] | 3.9
GAAPSPATTASPAKVDSSGVIDLF [F1G] | 4.43
TAAPSPATTASPAKVDSSGVIDLF [F1T] | 4.13
IAAPSPATTASPAKVDSSGVIDLF [F1I] | 3.47
RAAPSPATTASPAKVDSSGVIDLF [F1R] | 2.94
MAAPSPATTASPAKVDSSGVIDLF [F1M] | 3.76
WAAPSPATTASPAKVDSSGVIDLF [F1W] | 3.01
KAAPSPATTASPAKVDSSGVIDLF [F1K] | 4.14
EAAPSPATTASPAKVDSSGVIDLF [F1E] | 4.39
AAAPSPATTASPAKVDSSGVIDLF [F1A] | 3.95
NAAPSPATTASPAKVDSSGVIDLF [F1N] | 3.79
FAAPCPATTASPAKVDSSGVIDLF [S5C] | 2.16
FAAPDPATTASPAKVDSSGVIDLF [S5D] | 3
FAAPGPATTASPAKVDSSGVIDLF [S5G] | 2.45
FAAPLPATTASPAKVDSSGVIDLF [S5L] | 2.81
FAAPFPATTASPAKVDSSGVIDLF [S5F] | 1.97
FAAPHPATTASPAKVDSSGVIDLF [S5H] | 1.96
FAAPAPATTASPAKVDSSGVIDLF [S5A] | 2.51
FAAPEPATTASPAKVDSSGVIDLF [S5E] | 3.18
FAAPKPATTASPAKVDSSGVIDLF [S5K] | 2.66
FAAPIPATTASPAKVDSSGVIDLF [S5I] | 1.95

Variant | protein stability index
FAAPMPATTASPAKVDSSGVIDLF [S5M] | 2.24
FMAPSPATTASPAKVDSSGVIDLF [A2M] | 2.27
FLAPSPATTASPAKVDSSGVIDLF [A2L] | 2.56
FDAPSPATTASPAKVDSSGVIDLF [A2D] | 3.57
FKAPSPATTASPAKVDSSGVIDLF [A2K] | 3.08
FCAPSPATTASPAKVDSSGVIDLF [A2C] | 1.69
FRAPSPATTASPAKVDSSGVIDLF [A2R] | 2.89
FFAPSPATTASPAKVDSSGVIDLF [A2F] | 2.44
FYAPSPATTASPAKVDSSGVIDLF [A2Y] | 2.09
FWAPSPATTASPAKVDSSGVIDLF [A2W] | 1.99
FSAPSPATTASPAKVDSSGVIDLF [A2S] | 2.97
FQAPSPATTASPAKVDSSGVIDLF [A2Q] | 2.17
FTAPSPATTASPAKVDSSGVIDLF [A2T] | 3.36
FIAPSPATTASPAKVDSSGVIDLF [A2I] | 2.03
FNAPSPATTASPAKVDSSGVIDLF [A2N] | 3.45
FVAPSPATTASPAKVDSSGVIDLF [A2V] | 1.69
FGAPSPATTASPAKVDSSGVIDLF [A2G] | 3.57
FPAPSPATTASPAKVDSSGVIDLF [A2P] | 3.03
FEAPSPATTASPAKVDSSGVIDLF [A2E] | 4.29
FHAPSPATTASPAKVDSSGVIDLF [A2H] | 1.63

Variants of: B2
Experiment: as above
Details: c terminus: a fixed tail appended

Variant | protein stability index
FSDDEEDLNSKGKKREFRFTPIKE [H20T] | 4.59
FSDDEEDLNSKGKKREFRFGPIKE [H20G] | 4.34
FSDDEEDLNSKGKKREFRFAPIKE [H20A] | 4.58
FSDDEEDLNSKGKKREFRFCPIKE [H20C] | 4.31
FSDDEEDLNSKGKKREFRFMPIKE [H20M] | 4.83
FSDDEEDLNSKGKKREFRFWPIKE [H20W] | 4.31
FSDDEEDLNSKGKKREFRFKPIKE [H20K] | 5.13
FSDDEEDLNSKGKKREFRFEPIKE [H20E] | 5.28
